In patent publication US10078082B2, “Detection of free and protein-bound non-human gal-alpha(1-3)-gal epitope” (National University of Ireland, Galway, priority 2012, dated 2018):
“And” between values parts separate entries of the source, which are not always exact repeats. Identical values can stand only once.

B1: scFv A11: chicken anti-Gal-α-(1→3)-Gal single chain antibody fragment, Seq Id No. 4; clone D9 has the same sequence (protein)
scFv: QAALTQPSSVSANPGETVKITCSGGGSYGGSYYYGWYQQKSPGSAPVTVIYSNDNRPSDIPSRFSGSTSGSTSTLTITGVQVDDEAVYYCGTYDSSYVGIFGAGTALTVLGQSSRSSGGGSSGGGGSAVTLDESGGGLQTPGGGLSLVCKASGFTFSSYSMQWVRQTPGKGLEFVAGIGYSDSYTYFGPAVKGRATISRDNGQNTVRLQLNNLRAEDTATYYCARSADTIYGCTHPWCSADNIDAWGHGTEVIVSSTSGQAGQ
modifications: Synthetic protein sequence forscFv-A11 antibody fragment for detecting non-human Gal-alpha(1-3)-Gal
B2: scFv A4: chicken anti-Gal-α-(1→3)-Gal single chain antibody fragment, Seq Id No. 2 (protein)
scFv: QAALTQPSSVSTNPGGTVKITCSGGNGNYGWYQQKSPGSAPVTVIYSNNKRPSDIPSRFSGSKSGSTATLTITGVQVDDEAVYFCGAYDNTYVGVFGAGTTLTVLGQSSRSSSGGGSSGGGGSAVTLDESGGGLQTPGGGLSLVCKASGFTFSSYSMQWVRQTPGKGLEFVAGIGYSDSYTYFGPAVKGRATISRDNGQNTVRLQLNNLRAEDTATYYCARSADTIYGCTHPWCSADNIDAWGHGTEVIVSSTSGQAGQ
modifications: Synthetic protein sequence for scFv-A4 antibody fragment for detecting non-human Gal-alpha(1-3)-Gal

Columns and labels:
[1] = scFv-based competitive ELISA, free Gal-α-(1→3)-Gal as standard, immobilized Gal-α-(1→3)-Gal-BSA; assay type: binding; conditions: for ED50: free Gal-α-(1→3)-Gal disaccharide standard, plates coated with Gal-α-(1→3)-Gal-BSA 10 μg/ml, FIG. 6
Protocol: FIG. 6: Standard curves for competitive ELISA given by scFv clones G12, A4, and A11. Plates were coated with immobilized Gal-α-(1→3)-Gal-BSA [10 μg/ml] and incubated with 2.5 μg/ml of the scFvs in the presence of an increasing concentrations of free Gal-α-(1→3)-Gal. The error bars indicate the standard error of the mean of triplicate determinations. Each scFv was evaluated in a competitive ELISA format using free Gal-α-(1,3)-Gal as standard. Microtitre plate wells were coated and blocked as previously described. Standard solutions were prepared in PBS (pH 7.2), ranging in concentration from 2 μg/ml (5.84 μM) to 20 mg/ml (58.4 mM). For the assay, 50 μl of each standard and buffer blank were added to designated wells in triplicate, followed by 50 μl of a sub-saturating concentration (1 μg/ml) of the appropriate scFv, giving a final standard concentration in the assay of 1 μg/ml (2.92 μM) to 10 mg/ml (29.2 mM). The plate was incubated for 1 hour at 37° C. with shaking After washing, bound scFv was detected as previously described. The ratios of the OD for each standard versus the OD given by the blank (B/Bo) were plotted versus standard concentration and standard curve plotted using SigmaPlot (v11, Systat Software Inc). The detection limits were determined as the concentration corresponding to the mean response for zero standard minus three times the standard deviation (SD). Inhibition of scFv by a panel of free sugars. scFv binding to Gal-α-(1→3)-Gal-BSA was determined against a panel of 21 free form sugars; D-Cellibiose, Melibiose, D-Raffinose, Lactulose, Palatinose, β-Gentibiose, D+ Trehalose, D+ Turanose, L− Fructose, D+ Glucose, Sucrose, Galacto-N-biose, 4β-Galactobiose, gal-α(1-3)-gal-β-(1-4)-gal, gal-α(1-3)-gal-β-(1-4)-glc, gal-α(1-3)-gal-β-(1-4)-gal-all-3)-gal, Laminarbiose, β1-4-D-Xylobiose, N-Acetyl-D-glucoseamine (GlcNAc), Galactose, N-Acetyl-D-lactosamine (LacNAc), (sourced from Sigma Aldrich and Dextra, UK). Inhibitions were performed by serial dilutions of free sugars and a sub-saturating concentration scFv added to each dilution and pre-incubated for 60 minutes at 37° C., prior to performing ELISA against Gal-α-(1→3)-Gal-BSA as used throughout. The percent binding of the scFv was plotted against the […], and the 50% effective dose determined (ED50; dose of free sugar causing 50% displacement of the scFv).

[2] = NGC microarray specificity analysis (over 50 structures); assay type: binding; conditions: FIG. 8
Text: FIG. 8: Comparison of the specificity of selected scFv fragments A4, A11 and G12 against a panel of related NGCs compared directly to the specificity binding pattern of the lectin GS-1-B4, considered as highly specific for α-Gal residues.
The spectacular specificity of the scFvs has also been determined by analysis on an NGC microarray containing over 50 different structures. […] ScFv-based competitive ELISA. Competitive ELISAs were established with each of the three scFvs examined using as standard the free Gal-α-(1→3)-Gal disaccharide within the concentration range 0.001 to 10000 μg/ml (2.93 nM to 29.3 mM). […] A panel of 21 related sugars were tested in the scFv-based competitive assays (Table 1). […] All three scFvs were more reactive to the disaccharide than Gal-α-(1,3)-Gal-containing trisaccharides, as shown by lower inhibitory activity of the trisaccharides and supporting the results obtained in the direct ELISA.

[3] = Near UV circular dichroism interaction study with disaccharides; assay type: binding; conditions: pH 7.2, 20° C.
Protocol: The scFvs A4, A11 and G12 were used to check their interaction with Galα(1,3)Galβ1-OMe (Carbosynth) and with melibiose, the latter as negative control.
(§1) Two types of experiments were performed: firstly, the near UV circular dichroism (CD) spectra of the scFvs in the absence and presence of 4 mM of both disaccharides have been compared. Secondly, the effect of the disaccharides on the thermal stability of the scFvs has been studied.
(§2) Samples were diluted in NaPi (10 mM)-NaCl (150 mM) pH 7.2 and either concentrated by ultrafiltration twice (for small amounts) or exhaustively dialyzed. CD spectra were acquired at 20° C. in a J-810 spectropolarimeter, equipped with a Peltier temperature control system, using a bandwidth of 1 nm, a scan rate of 20 nm/min and a response time of 4 s, collecting data every 0.2 nm and 3 accumulations for each spectrum. Near-UV spectra were registered at around 1.0 mg ml^−1 protein concentration in 1-cm path-length cells while far-UV spectra were recorded in 0.1 cm path-length quartz cells at a protein concentration of around 0.2 mg ml^−1. For all CD spectra, the corresponding buffer baseline was subtracted. Thermal stability was evaluated by measuring ellipticity changes at 208 nm while increasing temperature from 20 to 90° C., with a constant rate of 40° C./h. Ellipticity changes were collected every 0.2° C. and spectra were collected every 10° C. The thermal denaturation profiles were fitted to a sigmoidal function using the equation:—

[4] = Thermal denaturation monitored by far UV CD ellipticity; assay type: physicochemical; conditions: for HD / Tm: λ 208
Protocol: as §1
as §2, with “Thermal stability was evaluated by measuring ellipticity changes at 208 nm while increasing temperature from 20 to 90° C., with a constant rate of 40° C./h.” left out
where Θ(T) represents the ellipticity at temperature T (Kelvin), ΘN the ellipticity of the native protein, n the number of transitions, ΔΘ1 the ellipticity increment of transition i, R the gas constant and Tmi and HDi the temperature at the transition midpoint (melting temperature) and the parameter which describes the cooperativity (slope) of the corresponding transition, respectively.
In the second set of experiments, the thermal stability of the scFvs in the absence and presence of the disaccharides was investigated. With this type of experiment, we were able to get: 1) the far UV CD spectra at increasing temperatures, which gave information on changes in the secondary structure of the proteins upon heating and 2) the profile of the change in ellipticity at a certain wavelength, also with increasing temperatures, that allowed the calculation of the temperature of transition (Tm). Direct comparison of the Tm in the absence and presence of sugar provided information about the effect of the sugar on the scFvs, a thermal stabilisation (i.e. an increase in the Tm in the presence of the sugar) being indicative of interaction.

[5] = 4 mM melibiose (negative control)
[6] = in the presence of 4 mM Galα(1,3)Galβ1-OMe, 208 nm

| Molecule | ED50 ([1]; listed as A11) | Specificity for the Gal-α-(1→3)-Gal epitope compared with GS-1-B4 [2] | Change of near UV CD spectrum ([3]; 4 mM Galα(1,3)Galβ1-OMe) | Change of near UV CD spectrum [3, 5] | HD ([4]; +4 mM Galα(1,3)Galβ1-OMe) | Tm ([4]; +4 mM Galα(1,3)Galβ1-OMe) | HD ([4]; +4 mM melibiose) | Tm ([4]; +4 mM melibiose) | HD ([4]; Pure scFv) | Tm ([4]; Pure scFv) | Change in cooperativity (HD) [4, 6] | Stabilisation (increase in Tm) [4, 6] | ED50, composite standard curve ([1]; composite curve from 9 independent runs, FIG. 7, listed as A4) | ED50 ([1]; listed as A4) |
| --- | --- | --- | --- | --- | --- | --- | --- | --- | --- | --- | --- | --- | --- | --- |
| B1 | 1225 μg/ml and 3.58 mM | much higher specificity | No significant changes were observed | No significant changes were observed | 95 ± 6 kcal/mol | 69.0 ± 0.2 °C | 141 ± 7 kcal/mol | 61.1 ± 0.1 °C | 134 ± 7 kcal/mol | 61.3 ± 0.1 °C | ~38.5 kcal/mol | 7.7 °C |  |  |
| B2 |  | much higher specificity | molar ellipticity per residue in general decreased | remained unchanged | 52 ± 3 kcal/mol | 74.8 ± 0.3 °C |  |  | 57 ± 3 kcal/mol | 64.6 ± 0.2 °C | ~4.7 kcal/mol |  | 327 μg/ml and 0.95 mM | 311 μg/ml and 0.91 mM |
